Measurements reported in the DeepSol protein solubility set.

Assay: soluble on expression in E. coli; label from the status in PepcDB or PDB records

Sequence | soluble on expression in E. coli
MIFRAKANKALDRAEDPRETLDYSYQKQLELLQKVRRGVADVATSRKRLELQLNQLQSQSGKLEDQGRKALALGREDLAREALSRRAALQQQVTDLETQHATLQGEEEKLTLAAQRLQAKVDAFRTKKETIKATYTAAQAQTRIGEAFSGISEEMGDVGLAIQRAEDKTAQLQARAGAIDELLASGALDDQSGMHKDDIQAELDRLSGGTDVELELQRMKAELAGGSTSDRQAIEGGQGQGEASSQSQQPQDTPRFDKQLEHHHHHH | not soluble
MNDKIQKLIKKLAKECQKEDVALSLAAIDLEGEMAISQVGKGTIVAIAAHSQYTLTKEKLEQSDCDCPKHRLLKEMYGTETETTTKNTHTFVTDDPNDLMDILSKIFRGEFK | not soluble
MGSDKIHHHHHHMEIKGKVHYVGVNDRNKALFENLWPLPYGVSYNSYLIDDEMVALVDTVDVCYFEVYLKKIRSIIGDKPINYLIINHMEPDHSGSISLIKQYYPNIVIVGNKKTFEMIEGYYGVGGERYVVGEGDFLALGHHRLRFSLIPMVHWPETMVTFDETEGILFSGDAFGCFGALNGGVVDTNINTDIYWNEMVRYYSNIVGKYGAPVQKALQKLQNLKITTVCSTHGPVWTEEIPRVVRIYDRLSRYEAEEGVVIAYGSMYGNTEEVAEAIAEELSKQGIRNIVMHNVSHTSHSFIIADVFKYKGLIVGCPTYNTQMYPEMEALLSKLASREIKGRYLGYFGSFTWASAAVKKIAEFNDKLKFEPVGNPVEMKHSMKAETNTQAKELAKAMADRLKADRK | not soluble
MNKKEIQAYQSAFEKFNPFYGVDFPITSVKLCELINKMRNDHNEKVVELRHDHLMNKIREFSEQVNAPNFRVVESSYKDTKGEDRKCYLLGKTECRAIAATESKSVCYMIMVYLDQLEQIFEKAKEAKATEFDRKLSKQGVTWREACRTVGIEHPDLALK | not soluble
MDSARTFESIVIIFNPNSTGDAPELAQQLHGKLKELLTYQPEITLQPTEHAGHAVDLAREAASKGGDVLVVSVSGDGGYNEVVNGVMQADNPRAVAAVLAAGNANDHSRIIGTKPLEEAIAEGRVHNIDLLRIHTGQKENEPLEYAHSYIGFGLTPVVATELEKGSKGALKEMVTVIKSFSEFQPFAIRQSDGKRRKFDSLVFANINEMAKYATLSEAEDHPSDGKFEVIVFPHMPKWRVLLTALKATTQGLGDQPSVSSYEFTTLKPLPYQMDGEVKSVEANVKVTVESAPQALATLG | soluble
MEDDMSVVDNIRFTFLYIEFYSMGRTWVYPESVIPYSIFRYIEKGKAELCIDGEEIIVEENQIVYIPQGCKMSCRALGESFEFYSLRFTTSVFYEGEDMLAEYYGIPRVSVNEGEDVYFKEIYKWVKKDSMVKKCFVRGNLDLLIGSLAMHGNKVDKVTGDFVETIEEKSLRDRNSKKNEQIDPRIYIVADYIILHPSEKYTPQKMAEMADLSKQRFSSLFKINMGKTPMEYVREIRLTTAARALLVSNDNINDIAYACGYEDTNYFIREFKSAFGFTPNQYRKVARE | not soluble
MIRVTIEREADGRIRAFTMEGHAHFAKRGQDIVCAGASAVSFGTINAIETLIGVSPHVSLGKDGGYLRCELPELEEAAAEKVQLLLEAMVVSLKTIERDYGTFIRVTSI | not soluble
MTKLEVCCYSVDCAQIAEKAGADRVELCCGQSEGGVTPSVGALMQARETVTIPVHPIVRPRGGDFCYSSNDFTIMKNDIARIRDLGFAGVVVGVLDTDGHIDMPRMREIMSVSGSLAVTFHRAFDMCQNPMIALKQLAELNVARILTSGQQQNAELGLALLKDLVAATKDQGPIIMAGAGVRLTNMQKFIDAGIRELHSSAGRTVPSTMRYRKAGVTMCADSDVDEFSHYCVDGEVVEAMKSLLVMGSPLAKHT | soluble
